For eight molecules, EC50 results are on record in US10822379 (UNIVERSITY OF PITTSBURGH OF THE COMMONWEALTH SYSTEM OF …, dated 2020).

Sequences and labels used below:
B1: Clone #4 (ab4) (scFv)
scFv: EVQLVQSGGGLVQPGGSLRLSCAASGFTFSNYAMTWVRQAPGKGLEWVSTIAGSGDNTYYADSVKGRFTISRDNDKNTLYLQMNSLRADDTAVYYCARDRYYTMDVWGQGTLVTVSSGGGGSGGSGSSGGGSQSVVTQPPSASGSPGQSVTISCTGTSSDVGGYNHVSWYQQHPGKAPKLLIYEVSERPSGVPDRFSGSKSDNKASLTIIGLQTEDEADYYCQSYDSSLSGSLFGTGTKLTVLR
notes: also called #4 (scFv)
B2: Clone #7 (ab7) (other)
VH: EVQLVESGGGLVQPGGSLRLSCAASAFDFYDYEMSWVRQAPGKALEWIGEIHHSGSTYYNPSLKGRFTISRDNSKNTLYLQMNSLRAEDTAVYYCAKDVSYHADVWGQGTTVTVSS
notes: also called #7 (VH domain)
B3: Clone #8 (ab8) (other)
VH: EVQLVESGGGLVQPGGSLRLSCAASGFTFDDYAMSWVRQAPGKGLEWIGRMYNNGRTSYNPSLKSLVTISRDNSKNTLYLQMNSLRAEDTATYYCARDNLGYRPSENLYGMDVWGQGTTVTVSS
notes: also called #8 (VH domain)
B4: Clone #9 (ab9) (other)
VH: EVQLVESGGGLVQPGGSLRLSCKGSGFTLSDYYIGWVRQAPGKGLEWIGSMYHSGRTYINPSLKSRVTISRDNSKNTLYLQMNSLRAEDTAVYYCARGGITGTTPIDYWGQGTLVTVSS
notes: also called #9 (VH domain)
B5: Clone #2 (ab2) (Fab, V domains shown)
VH: QVQLQQSGPGLVKPSQTLSLTCAISGDSVSSNSAAWNWIRQSPSRGLEWLGRTYYRSKWYNDYAVSVKSRITINPDTSKNQFSLQLNSVTPEDTAVYYCAREQQQLVPHYYYYGMDVWGQGTTVTVSS
VL: DVVMTQSPSVSGSPGQSVTISCTGTTSDVGGYNYVSWYQQRPGKAPKLMIYEVSKRPSGVPDRFSGSKSGNTASLTVSGLQAEDEADYYCSSYTSSSTLFGTGTKLTVLG
notes: also called #2 (Fab)
B6: Clone #5 (ab5) (other)
VH: KVQLQQWGAGLLKPSETLSLTCAVYGGSFSGYYWSWIRQPPGKGLEWIGEINHSGSTNYNPSLKSRVTISVDTSKNQFSLKLSSVTAADTAVYYCVRLPMIKKSFDIWGPGTLVTVSS
notes: also called #5 (VH domain)
B7: Clone #1 (ab1) (Fab, V domains shown)
VH: EVQLVESGGGLVQPGGSLRLSCAASGFTVSSNYMSWVRQAPGKGLEWVSVIYSGGSTYYADSVKGRFTISRHNSKNTLYLQMNSLRAEDTAVYYCARGYGDYYFDYWGQGTLVTVSS
VL: DVVMTQSPATLSLSPGEKATLSCRASQSVSSYLAWYQQKPGQPPKLLIYWASTRESGVPDRFSGSGSGTDFTLTISSLQAEDVAVYYCQQYGSSPLTFGGGTKVEIKR
notes: also called #1 (Fab)
B8: Clone #6 (ab6) (other)
VH: EVQLVESGGGVVQPGRSLRLSCAASGFTFSSYAMHWVRQAPGKGLEWIGNIYHDGSTFYNPSLKSLVTISRDDSTNTLYLQMNSLRAEDTAIYYCARVWLYGSGYMDVWGKGTLVTVSS
notes: also called #6 (VH domain)

In this experiment the target is RBD of the S protein of SARS-CoV-2 (SARS-CoV-2, UniProt P0DTC2 330-532). Kind of experiment: ELISA on SARS-CoV-2 RBD. On the technique in general: An ELISA detects its analyte on a solid surface through an enzyme-linked reagent.
As usually defined, the EC50 is the midpoint of the concentration-response curve. Higher therefore signals a less potent agent. On to B1, for which the EC50 turned out to be 10 nM.

Turning to B2, the EC50 was found to be 4 nM.

As to B3, the midpoint of the response, the EC50, lay at 25 nM.

For B4, it took 60 nM to reach a half-maximal effect (EC50).

For B5, the EC50 is 2 nM. Compared with the last molecule, the EC50 is about 30-fold lower.

Molecule B6 gave an EC50 of 20 nM.

B7 displayed an EC50 of 20 nM.

B8 had an EC50 of 6 nM. Compared with the last molecule, the EC50 is about 3.3-fold lower.
